Broadly, the Kd is the free concentration of one partner at which half of the binding sites on the other are occupied at equilibrium, for simple one-to-one binding. A low value points to higher affinity.

For this experiment, the target named is CCR1-rHDL (human C-C chemokine receptor 1 with C-terminal 1D4 tag, in reconstituted high density lipoprotein) (human) (UniProt P32246). The experiment is described as follows: SPR; CCR1-rHDL captured via immobilised 1D4 antibody on a CM5 chip (~3000 RU); MIP-1α variant flowed at 0.13-5.0 μM; 25 °C; 20 mM HEPES, pH 7.2, 100 mM NaCl; empty-rHDL on the control flow cell; steady-state fit. (In general: In SPR one partner is held on a chip, and binding of the other changes the refractive index at the surface.)
Sequence of UniProt P32246 (P32246 whole entry): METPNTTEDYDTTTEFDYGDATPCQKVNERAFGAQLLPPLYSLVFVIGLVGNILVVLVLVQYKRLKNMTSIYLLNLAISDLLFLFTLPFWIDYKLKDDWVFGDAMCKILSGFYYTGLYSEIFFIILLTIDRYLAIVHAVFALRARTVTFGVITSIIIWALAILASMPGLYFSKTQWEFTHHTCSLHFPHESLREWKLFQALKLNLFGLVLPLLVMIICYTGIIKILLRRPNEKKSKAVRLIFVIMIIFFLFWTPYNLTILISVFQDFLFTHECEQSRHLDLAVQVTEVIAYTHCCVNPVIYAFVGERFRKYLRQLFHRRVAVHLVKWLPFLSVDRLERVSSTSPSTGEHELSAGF

Substance MIP-1α variant (P8A/F13Y/E67Q) (ligand) yielded a Kd of 2 µM.

(Values after article PMC4662715.)
